Publication doi:10.1101/2020.10.02.311787 (bioRxiv, 2020)

Assays:
[1] = target: GFP-PRL-3 in HCT116 cells (Homo sapiens, UniProt O75365); test: immunostaining of cells or tissue
[2] = target: 3XFLAG-PRL-3 in HEK293T cells (Homo sapiens, UniProt O75365); test: pull-down
[3] = target: T1, Phosphatase of Regenerating Liver-3 (PRL-3), recombinant (Homo sapiens, UniProt O75365); test: ELISA
[4] = target: GFP-PRL-2 in HCT116 cells (Homo sapiens, UniProt Q12974); test: immunostaining of cells or tissue
Sequence of GFP-PRL-2 in HCT116 cells (Q12974 whole entry): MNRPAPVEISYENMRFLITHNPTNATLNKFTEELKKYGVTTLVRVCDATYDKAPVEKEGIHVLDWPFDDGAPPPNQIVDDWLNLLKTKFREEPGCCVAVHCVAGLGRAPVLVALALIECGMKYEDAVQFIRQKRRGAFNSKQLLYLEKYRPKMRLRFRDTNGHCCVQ

[5] = target: GFP-PRL-1 in HCT116 cells (Homo sapiens, UniProt Q93096); test: immunostaining of cells or tissue
Sequence of GFP-PRL-1 in HCT116 cells (Q93096 whole entry): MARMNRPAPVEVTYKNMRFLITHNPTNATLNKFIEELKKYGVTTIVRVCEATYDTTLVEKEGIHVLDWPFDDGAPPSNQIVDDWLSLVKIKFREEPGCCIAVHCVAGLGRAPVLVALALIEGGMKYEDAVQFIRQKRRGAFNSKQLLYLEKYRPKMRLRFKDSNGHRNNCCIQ

[6] = target: T1, Phosphatase of Regenerating Liver-3 …; test: HDX-MS
[7] = target: 3XFLAG-PRL-3 in HCT116 cells (Homo sapiens, UniProt O75365); test: immunostaining of cells or tissue
Sequence of 3XFLAG-PRL-3 in HCT116 cells (O75365 whole entry): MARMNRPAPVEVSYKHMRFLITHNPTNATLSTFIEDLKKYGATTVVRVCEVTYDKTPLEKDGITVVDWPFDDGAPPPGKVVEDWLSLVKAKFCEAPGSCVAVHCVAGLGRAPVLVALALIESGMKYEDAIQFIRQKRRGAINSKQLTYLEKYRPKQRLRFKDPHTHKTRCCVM

[8] = target: untagged (wild-type) PRL-3 in HCT116 cells (Homo sapiens, UniProt O75365); test: immunostaining of cells or tissue
Sequence of untagged (wild-type) PRL-3 in HCT116 cells (O75365 whole entry): as above

[9] = target: 3XFLAG-tagged PRL-3, recombinant (human, UniProt O75365); test: co-IP
Sequence of 3XFLAG-tagged PRL-3, recombinant (O75365 whole entry): as above

[10] = target: T1, Phosphatase of Regenerating Liver-3 …; test: BLI

Sequence of GFP-PRL-3 in HCT116 cells (O75365 whole entry): as above
Sequence of 3XFLAG-PRL-3 in HEK293T cells (O75365 whole entry): as above
T1 sequence (O75365 whole entry): as above

| Binder | binding result [1] | binding result [2] | binding result [3] | binding result [4] | binding result [5] | binding result [6] | binding result [7] | binding result [8] | binding result [9] | Kd [10] [nM] |
| --- | --- | --- | --- | --- | --- | --- | --- | --- | --- | --- |
| anti-PRL-3 nanobody 4 (VHH) VHH: QVQLQESGGGLVQTGGSLRLSCAASQSTYNFDVMGWYRLAPGKQREFLTSITNGGNIYYADSVKGRFTIARDDSKTTMYLEMNSLKPEDTAVYTCYGQTHKPRVTTSWGQGTQVTVSS | binds | binds | binds |  |  |  |  |  |  |  |
| anti-PRL-3 nanobody 16 (VHH) VHH: QVQLQESGGGLVQTGGSLRLSCAASQSTFNFDVMGWYRLAPGKQREFLTSITNGGNIYYADSVKGRFTTARDDSKTTMYLEMNSLKPEDTAVYTCYGQTHKPRVTTSWGQGTQVTVSS | binds | binds | binds |  |  |  |  |  |  |  |
| anti-PRL-3 nanobody 10 (VHH) VHH: QVQLQESGGGLVQTGGSLRLSCAASQSTFNFNVMGWYRLAPGKQREFLPSLTNGGNIYYADSVKGRFTIARDDSKTTTYLEMNSLKPEDTAVYTCYGQTHKPRVTTSWGQGTQVTVSS | binds | binds | binds | no binding (tested: 1:100 of 1 mg/mL) | no binding (tested: 1:100 of 1 mg/mL) |  |  |  |  |  |
| anti-PRL-3 nanobody 91 (VHH) VHH: QVQLQESGGGLVQTGGSLRLSCAASQSTFNFDVMGWYRLAPGKQREFLTSITNGGNIYYADSVKGRFTIARDDSKTTMYLEMNSLKPEDTAVYTCYGQTHKPRVTTSWGQGTQVTVSS | binds | binds |  | no binding (tested: 1:100 of 1 mg/mL) | no binding (tested: 1:100 of 1 mg/mL) | binds | binds | binds | binds |  |
| anti-PRL-3 nanobody 19 (VHH) VHH: QVQLQESGGGLVQAGGSLGLSCAASRSIFNFKVMGWYRQAPGKQRELVASITNSDNTYYADSVKGRFTISREDAKTTMYLEMNSLKPEDTAVYRCYGQNWGLRATTYWGQGTQVTVSS |  |  |  |  |  |  |  |  |  | 98.4 |
| anti-PRL-3 nanobody 84 (VHH) VHH: QVQLQESGGGLVQAGGSLGLSCAASRSIFNFKVMGWYRQAPGKQRELVASITNSDNTYYADSVKGRFTISREDAKTTMYLEMNSLKPEDTTVYRCYGQNWGLRATTYWGQGTQVTVSS | binds | binds | binds |  |  |  |  |  |  |  |
| anti-PRL-3 nanobody 26 (VHH) VHH: QVQLQESGGGLVQPGGSLKLSCVVTGLHYYTEGWFRQAPGKEREGVSCISSSDGRTDYIDSVKGRFTISEDNDNKTVYLQMNTLKPDDTGVYYCVAERGPRGSTWWETYDYWGQGTHVTVSS |  |  |  | no binding (tested: 1:100 of 1 mg/mL) | no binding (tested: 1:100 of 1 mg/mL) |  |  |  |  | 28.9 |
